Assay [1] concerns the target T1, sortase A (SrtA) (S. aureus), Q2FV99.
T1 chain: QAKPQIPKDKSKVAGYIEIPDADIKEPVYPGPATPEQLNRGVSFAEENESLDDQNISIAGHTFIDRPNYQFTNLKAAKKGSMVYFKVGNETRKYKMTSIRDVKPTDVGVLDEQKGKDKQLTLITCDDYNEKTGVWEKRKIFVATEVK
The assay is described as follows: mean fluorescence intensity of SrtA-coated beads against peptide concentration, curve fit.

Assay [2] has the same target. The assay is described as follows: fluorescence polarization (anisotropy), SrtA titrated into peptide solution.
The target of another assay is Streptavidin, P22629. The assay is described as follows: fluorescence intensity of streptavidin-coated beads at varied peptide concentrations, hyperbola fit.

Kd data for four molecules are collected here from patent US12116698.

Where no end group is shown, it is not given here. [ ]: non-standard residue; d: D form. fluorescent label = not defined here; Dap = NC[C@H](N)C(=O)O; Cm = not defined here

Chain of Streptavidin, P22629 (P22629 37-163 limits assumed): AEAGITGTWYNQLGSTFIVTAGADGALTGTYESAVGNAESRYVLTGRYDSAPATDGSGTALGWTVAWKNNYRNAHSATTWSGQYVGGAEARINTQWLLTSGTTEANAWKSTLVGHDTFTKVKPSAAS

B1: W2 (peptide)
peptide: ACLNSSQPSCGGG[Dap](fluorescent label)
modifications: not fully specified (residues 2, 10); cysteine pairing not given here; reading uncertain; also: Cm code not defined, fluorescent label not named
B1: the Kd in assay [1] came out at 14 µM; in assay [2], 12 µM.

B2: W1 (peptide)
peptide: ACHPVSGQKCGGG[Dap](fluorescent label)
modifications: not fully specified (residues 2, 10); cysteine pairing not given here; reading uncertain; also: Cm code not defined, fluorescent label not named
As for B2, the Kd in assay [1] was 14 µM.

B3: SA1 (peptide)
peptide: A[Cm]TPRSANY[Cm]GGG[Dap](fluorescent label)
modifications: not fully specified; reading uncertain; also: fluorescent label not named
B3 returned a Kd with Streptavidin, P22629 of 6 µM.

B4: SA2 (peptide)
peptide: A[Cm]DGRPDRA[Cm]GGG[Dap](fluorescent label)
modifications: not fully specified; reading uncertain; also: fluorescent label not named
Take B4: the Kd with Streptavidin, P22629 came to 9 µM.
